For one molecule, neut50, flow cytometry-based neutralization of DENV3 (CH53489) infection of Vero-81 cells results are on record in publication PMC4346626.

The target in the assay is envelope (E) protein of DENV3 reference strain CH53489, on the virus particle (dengue virus serotype 3, strain CH53489).

B1: Fab fragment of human monoclonal antibody 5J7 (Fab, V domains shown)
VH: QVQLVQSGAELRKPGSSVKVSCRASGGTFSSYTFNWVRQAPGQGLEWMGGFIPVFNTTNYAQTFQGRVTIAADKSTSTAYMELRSLRSEDTAIYYCARDKELLFSRAFDIWGQGTMVTVSS
VL: DIQMTQSPSSLSASVGDRVTITCRASQSISRYLNWYQREPGKAPKLLIYGASSLQRGVPSRFSGSGSGTDFTLTISSLQPEDFATYYCQQSQYIPYTFGQGTKVDIK
With B1, the neut50, flow cytometry-based neutralization of DENV3 (CH53489) infection of Vero-81 cells is 0.041 µg/mL.
